The record followed here is article PMC12474298 (2025).

Where no end group is shown, it is not given here.

Common to all, as to test: FP
Assay [1] has as its target IMPα1 minor site mutant E396R (human).
The target in assay [2] is human importin α1 lacking the importin-β binding domain (hIMPα1ΔIBB) (human).
For assay [3], the target named is IMPα1 major site mutant D192K (human).

B1: HaHV1 UL36h NLS peptide (residues 1491-1500), FITC/Ahx-labelled (peptide)
peptide: ETKKRRRILE
modifications: not fully specified (N-terminus); also: FITC/Ahx-labelled, position not given here
As for B1, the Kd (as a rule, the constant that tells how readily two partners part at equilibrium) in assay [1] was 1.76 µM; in assay [2], 0.362 µM; in assay [3], 3.55 µM.
